Test system: T1, LexA2 recombinant (Leptospira interrogans serovar Copenhageni), ORF:e6531adf
T1 sequence: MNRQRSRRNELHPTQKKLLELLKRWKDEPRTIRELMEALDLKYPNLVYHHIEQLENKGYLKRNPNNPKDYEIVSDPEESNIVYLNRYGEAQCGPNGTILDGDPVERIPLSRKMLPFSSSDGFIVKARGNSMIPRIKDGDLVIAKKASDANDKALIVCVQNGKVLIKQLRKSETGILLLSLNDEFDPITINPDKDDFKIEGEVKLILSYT
Assay: EMSA
Conditions: Roche DIG Gel Shift Kit binding buffer (composition and pH not given), poly[d(A-T)], 1.55 fmol probe, 20 min on ice; 5% native gel, 0.5x TBE, 4 C

GTTCATTTCTTCTGGATCGTTGCCTATTCATACTACTAAGTACATGATTAGGAAAATTAACTTAAAAAGCAAGAAAAAAATCAACTCGCATCTTGACATTTAAACTTTGTACAAGTATAATTACAATTAAAGCAATGGGACATATTCCCAAAGGAGACATGAATGTCTAAGAACATTAAAGTTACCAAAGAATCGAATACAGGGCTCAATAAAGAATTCTACGATCCTTCCAGAGGAAAGTC (double strand) [lexA2up]
binding: binds

— paper PMC3789691
